For 47 sequences, protease stability score results are on record in the NTF2 design screens of Basanta et al. (2020).

A short description of this series: protease stability score; higher = more stable; yeast display proteolysis, trypsin and chymotrypsin.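 Note: relative to predicted unfolded state with 0 unfolded-like and 1 meaning tenfold more protease.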
The sequence “DELEHDAREYFRILEESIRTGDEDLFRKLADPNVRLMIDGKNWIGWESYHEELRQYDHRHVDMRIDHIEVVDGRVHIDGRIEVTITIDGVEHRLNHKLRVEIEKIDGRWHMKFILVE” displayed a protease stability score of 1.67.

Sequence “DELEHFALKFAEEWLQHYLTGNEEMISKLHDPHVKLHIGDKDLIGWEKFEEFLRETLSRVDHLHFNIRSVQSQGNKIVFDGKYIVIQGDKRYEFDIEFHIVVFNGRVHRIHYESH” came in with a protease stability score of 1.58.

Consider “DELEHFLLEILRELAHALETGDEERLTDLIDPHARINVDGVEIHGMDHWRELLHQIRFSIEDMHITHVEVQGDKIIIHGRVHVSNEVDGVENRSETHEIWYMKKFDGRWRVTTIEVK”, for which the protease stability score came to 1.3.

“DELEHHLFELMEKMIKARLTGDEETLHRLADPDTRIEVGEFEFHGREHWVRFVRELDERIKNIRFEIRLRRYETVGNKIHIDIELRYHQGDKEEHHRTEWILIVFNGRLKSIQIVLH” had a protease stability score of 1.81.

Turning to “DELEHIERRYWHLFVRALETGDEERLDRLVDPHARLDWNGREIVGREHLRHYLSHMRIVIEHHHIKDVNIQGEKIDSDIHLVLTMHVGDKDLEIRTDARSIHLKIDGKWLIESHKIK”, the protease stability score worked out at 0.966.

As to “DELEHLANEWMKRVIHHLETGDEESWMKYADPNVRTEINIGDKTEERHGRERYIDFIRRLGFDHVHIHDQRIHHVNGVLFIHLNIKIKQGDYLFTSELDIIVRKIDGQWFVRSINIKVD”, the protease stability score worked out at 0.601.

The sequence “DELEHLERQLAEEILEDFMTGNEENFDHLADPNVKHDINGVEIIGREHYVEWWRRIKNVKIELKRYHIIGDKATIDGHEVFEGRRHKMILELDIVNGQIKRVRFELR” registered a protease stability score of 0.986.

“DELEHLLREFFRLWKTAVETGDFRMLLELADPHVKQHIGDKTFVGWERLIESIERIVHEMRITEVTFTQVQVQGDYAHVDLRVFSEVGDKHLILKVELFLLKVNGRWVLESLRVE” gave a protease stability score of 1.62.

“DELEHMVRLLLKIWIHALITGDEELMMDQADPNVRLIIGDKIHHGMETFEEWVHQFKNLTVKHIVLRHTHYQGNKARIVGHLDIEINGRHHRLQTEIVIHKFNGKWYISDLRFD” gave a protease stability score of 0.646.

As to “DELEHRSQEAIEHIVHSMQTGNEEEIERNMDPNARIRVGNYHLHGRKEAVRWFNFFLTELRIHDIHIHDVKSQGEWIHIDGHIRGQINGQEHSVRTHIIVYKINGKWHDTSYHLS”, the protease stability score came out at 0.723.

On to “DELEHWAHIILEEFTRLYTTGDEETFNHLADPDTRLFFNGREFIGREKFIDAWRHLRYKEIRLRDHQVDVQGDKMRMILHMRVNSNINGREVEQDVHLEILTKKIDGRWRLKEVHFQTH”, for which the protease stability score worked out at 2.39.

“DELEKAIHHILKELLEARLTGDWQMVIDRFDPHVLLRVGDKEFHGREIIRHLHEQFDHVEHVDLRLENHRYQGNKIHLDIKTTMDVRVGEKRVELRTESRIILLKVNGRWIIESVEIN” showed a protease stability score of 2.02.

With “DELEKAMRTAVELFRHLIETGDEEFMQRLADPHTQLIVGDKTFHGRDHVVHEWEKFKNVKYRFEDVEFQGDKIILHSTLEFDGRRLETHIQLHKINGRWLLKRVEIK”, the protease stability score was 1.39.

In the case of “DELEKDARKLFEMIYRMLKTGDEDHFLRLADPDVRVHQGDKEIHGMDISKQIVEDLGIQKIEVHVHKVEIQGDKVDITGEVNWNGQNINLIVYTEKVNGKWRIHSVELH”, the protease stability score was 1.61.

“DELEKDLKDAFRILIEEVKTGDFKSMRRNMDPDARIDIGDKHSVGREEAIHLMEIFYKEWRFEHIDLHDFTLIGNKLELDMRVHGNVDGVRTIVIRRVISEKIDGRWLIRTESIE” registered a protease stability score of 0.494.

“DELEKFIKYVATRLVHDWMTGDEETSKKLLDPHYKTRILYDGRYTELHGREIFVKFVRELLEEIRIHLEVDRIRPIGDKVLLDTRLEIRIGDKRIERSTELHYVVINGRVDQMELVFI”: the protease stability score turned out to be 1.32.

As for “DELEKHLIHLAEIFIHNKLTGDEEELQRFMDPSVRTIVGEFHYHGRELVTEWLRREWEEMRIHEIHITHVRFQGDKVIIEGRLDIEVNGRRVDTHALIILVVVDGVMKSVKFEII”, the protease stability score stood at 1.23.

In turn, “DELEKIVEDFLRVLLEHLHTGNWEYLKEYFDPDVRIKIGDKELHGREDFVRRLREWLSRIKNATFEIEVDDNKVQGDKAILHTKVIIRVGDKLIELKTHIIVNKINGVWMVRSQSVE” registered a protease stability score of 1.46.

Turning to “DELEKLLEHMLRLMNELLETGDWDWIMSLADPHTKFRLDINGVEHIDHGWEFLHKRIEELGADHREFRVRDIHTQGDKVHSEGEHLIRVNGKEIHIDVRIILLVVNGKVKEIEVRFK”, the protease stability score turned out to be 1.7.

As to “DELEKLLKLAMEMSLKLFETGDEESLHRLIDPHVRMEIVQGDKFIELHGREDVVRAMKEFRKKFPNLKVELEDHDIQGDKVIWHSVIHVGDKELELIIISLKFDGRWVLESVELKHR”, the protease stability score was 1.4.

“DELEKLLRYWLREFFDALLTGDEEIFTRYMDPEARLIVDGVEYHGREEVLKHLRDKLREIRIKDYVIHSLDFVNGRIHVDVRQDVVIGEKREKTRLHIHIDVIDGKNHELDIEWR” registered a protease stability score of 2.1.

Regarding “DELEKVMHDMADLILHLYLTGDWETFLELADPNVKITIGDKEHHGWKSWKRLLEEELRRVDHIDSKLKRVIAIGDKAHVDGHMEINVNGREYRLDVHIIYVIVNGRHKEIEIHSE”, the protease stability score was found to be 1.31.

As for “DELEKYVLDMVMLWIRSHSTGDEDALRRLADPHTRVIINGKELHGMDDVRRHIEEIRIHEEHVHVERVEIQGNKAIVDTSRHIWIDFNGQNIRVDVKTRFHLEKIDGVWYLKEVRIG”, the protease stability score worked out at 1.4.

“DELELHAEEMYEIWIKLEETGDWEIMLELADPNTKVTWNGVRIHGMEHYLERHHREHRKIKNITTHFILRDIDVIGNKSHVDGEVEIRVNGKTIILRVHFDNVVIDGRFKSHRVIVK” gave a protease stability score of 1.03.

“DELEQLAREVWETLRRAELTGDENRIHEMLDPNVRVDINGRESHGWDSFIYLLRELRFEDMHERDYRIRDVNGRLEITVTGDLEGEFNGKHFNRHTVIIIILEKYDGRWKVHEVKIELR” showed a protease stability score of 2.19.

“DELEQWVKHALEIWVRSLHTGDEDNLSELVDPNVRIDVNGQELHGRELVLHFLSHMRVHIIITRDREIQGNKAIMHLEVHHHQGDKEIHFRFDLIFHKYDGRWRLTEIRIE” displayed a protease stability score of 1.03.

In turn, “DELERDSRRVMEKLLEILYTGNFDELRKLFDPNVITHIDGRHIHGMHITIRELLRIQEELGYEFVEARMTSTHHQGDKLYVHLEYRIGDKTTRFFWFITKIDGRWWITEMRFE” came in with a protease stability score of 1.4.

As to “DELERDVKQVWDLLLESSRTGDEEVLDKMLDPNARMKVNGQESHGRHAVELLSERIDHIHHIEIERFRTQGNKIEIDIHIDGEVNGRRIRTHMHVIIRKIDGRWFVESWEMK”, the protease stability score came to 0.931.

Regarding “DELERILKEQAETIMHFWRTGDEESFNHMADPDYWLRVGDKNVHGREKASEYLRHWLEHIRIHDVKIRDKRVFNGRVFIDMREDGNVDGKRTTRTLHVIIVSIDGKITMVEIRLE”, the protease stability score stood at 0.996.

“DELERLAVETIHRFWHSLTTGNEKVLDELLDPNVRVHYNGKDIIGMEHFLKEISEIWRHVEDIKFTDNRVQGEKIRVHGHVDVKEEFDGRKIKIHTRVDYVVHKINGVWVVQSIKIH”: the protease stability score was determined as 1.05.

As to “DELERLVEDLVRILLEILLTGDWKILMRLMDPDARFIYGDKQRVGMEEVIKELHRLKEEIRINSIEIKRVEIQGDWVHVDGRSDVEVGDKRRSTEVRYHFHVFNGRMRRINIEVE”, the protease stability score came out at 1.12.

Consider “DELERRAEEVFRQWLHYWLTGDFESMERLADPNVRIVINGVELIGMEHVAREIVHRIRHWRVRIQIDRIDNQGDKVHSEGKLIIHQGEKNIHHDITIHFDVVNGKIKHLEIRIQ”, for which the protease stability score turned out to be 2.24.

As to “DELERRSRDLVELFITALKTGDEDLFSRLIDPNALTWVGDKEQVGWHTDVKMFEDLGLTNFDFHLRSKEIRIIDGKLHTIINGSININGKETDTEIRITISKINGRWQLSSVFVRLH”, the protease stability score was found to be 0.786.

For “DELERVSERAIKIFLHVFKTGDEHMHERMADPNVRVHVDGQDLHGREETVEHMLHFFERIKNVKIDVEDSKAYGDKVIVHSRLHWNGVTQHVELEMRKVNGRWEVTEIIIH”, the protease stability score was 0.1.

“DELETYSRRMFQLLLHIMETGDEEKWDHLADPNARLDIDGREFHGREIVSEVHSQIRSELGVDHHQITHFRLHTFDGKVEVEMEVIDKFDGRDVRSRIHIIVIKINGKWFLHEMSYDHG” showed a protease stability score of 1.35.

“DELFKNMHTMAEIFLKLLLTGDEDLIRHYADPNVRLEWIFNGVRFEHVGRESFMEFLHRWLEELRLHDLIVHEVRFQGDKYHMDTRERVRVDGVELDRKTEQMYVVVDGRLHSVHRIIN” registered a protease stability score of 0.678.

Sequence “DELHEDAEKAWRYRLEILRTGDPDSILELMDPDVRIEQGDKKFHGRELTEKFMKWLMDHARYEFFHLKDMRTYGNKVETDGYVVGNVDGQEHIVHVHVYSLKVNGRWTIKSIEIK” showed a protease stability score of 1.37.

For “DELHEERERASEVARRWVLTGNEEMLVQLADPEVRLHFNGVDFVGRETIHETLRRIHELWGVDRIEVRLKTVHIYDGVVDVHVDLHVGDKEIRDDIHLKKFNGRWEMTTRHVH”, the protease stability score worked out at 0.348.

On to “DELHEEYRKIYNIFRHLFETGDWDTWRKLADPHARFEYGEKVSHGREVASETIDWLLEHLRLEHFKLDHFTVQGNFFISDGTEHISYGDKTHTVKTRIILVRVNGVFHLVRIEFV”, for which the protease stability score came out at 1.43.

“DELHEFLERVAERLVRMEHTGNEEELKKLMDPHVRLVVGDKTSVGREELLRFLEELKRKIGWTNFTVHVRRIEVQGDFFNVDMELHVNGRSLHVLIRVQIINGKLESIHWIWI” showed a protease stability score of 2.03.

“DELHELVKRYWDRWIESMLTGDFDANHELVDPHARVDIGDKRFHGRELYELHYKRIDHFHIHEINIRHIEVVDGRVHIDVIMHTFEIVNGVKFSHHFRQIIIIEKVDGRWVVRRIIVK”: the protease stability score came to 1.01.

For the sequence “DELHERLEEVLEVRIEAILTGDWHWLSRMLDPDTRLEVGDKTYHGMEKIYEKLHTETRRMGWRMEVEIKDYRFQGDYLNVDGTIHIKIGDKEIQKRSELKIVVVDGRITEFKIEYR”, the protease stability score is 1.18.

On to “DELHETVEHAMERMIESSKTGDWRSLTKLMDPNVRMHIDGVDLIGWEIAVRVILEIRIEHVHIHHIDVQGDKMEVDVSVRIHFNGKHEDRQIVLFAEKVDGRWINRSVEIR”, for which the protease stability score came to 1.

In turn, “DELHHVLEIMLRELITAWRTGDERVLNELFDPHVLIVIGDKYYHGREFVTRWLRHIRIKHSEFHLRRIHIQGDYVHITGEFRIEGEFDGRENTVTHDSKIVTLKIDGRWTFHSIVLE” yielded a protease stability score of 2.16.

The sequence “DELHKFAEEFMKIFVHNFFTGDWRTMHELLDPHVRLDFNGVEHIGRENVLKFWEEIRRRYDHFHIEVKRVETQGEKAHSDVHLEFRINGQEEHRKQHWHLDVINGRIHSFFVEVE” yielded a protease stability score of 2.03.

For the sequence “DELHKHAEHMAKLIVETLETGDEDKIRELADPNVRMEIGDKRTIGREELTKLLRKWLSEWRVHDMHVESVEMQGDYTHLHTSVRGEVNGRHRELDTRIDVLVVNGRLKSLRLEIR”, the protease stability score worked out at 1.04.

On to “DELHKLAEDHLEDFSRAIHTGDEDHLHHLIDPDVRYHQGDKNLHGRESWHEILERIDHVESEDVKMHRIERQGNKLIIDGEWHMRFVYNGQEKRVEMNTIVILLKVNGKWVNEAWHIR”, for which the protease stability score was 0.463.
